# Molecular target: SARS-CoV-2 S1蛋白 (ACRO Biosystems) (SARS-CoV-2) (UniProt P0DTC2)
# Assay: BLI, biotinylated SARS-CoV-2 S1 on SA sensor, 1:1 fit
substance,measurement,value
针对SARS-CoV和SARS-CoV-2S1的人源抗体CR3022 (antibody),Kd,0.0866 nM
same,koff,1.9e-05 s⁻¹
same,kon,220000 M⁻¹ s⁻¹

# — patent publication CN114106161A
